# Measurements published in the RNAGym collection of RNA variant scans (doi:10.7554/elife.80360).
# B1: CPEB3 Ribozyme (parent)
# chain: GGGGGCCACAGCAGAAGCGUUCACGUCGCGGCCCCUGUCAGAUUCUGGUGAAUCUGCGAAUUCUGCUGU
# Variants of: B1
# Experiment: self-cleavage, relative activity (ratio to wild type); higher = more cleavage; co-transcriptional
row,Variant,self-cleavage
1,GGGGGCCACAUCAGAAGCGUUCACGUCGCGGCCCCUGUCAGAUUCUGGCGAAUCUGCGAAUUCUGCUGU,0.847
2,GGGGGCCACAUCAGAAGCGUUCACGUCGCGGCCCCUGUCAGAUUCUGGGGAAUCUGCGAAUUCUGCUGU,0.98
3,GGGGGCCACAUCAGAAGCGUUCACGUCGCGGCCCCUGUCAGAUUCUGGAGAAUCUGCGAAUUCUGCUGU,0.941
4,GGGGGCCACAUCAGAAGCGUUCACGUCGCGGCCCCUGUCAGAUUCUGGUGAACCUGCGAAUUCUGCUGU,0.329
5,GGGGGCCACAUCAGAAGCGUUCACGUCGCGGCCCCUGUCAGAUUCUGGUGAAGCUGCGAAUUCUGCUGU,0.487
6,GGGGGCCACAGAAGAGGCGUUCACGUCGCGGCCCCUGUCAGAUUCUGGUGAAUCUGCGAAUUCUGCUGU,0.385
7,GGGGGCCACAGAAGACGCGUUCACGUCGCGGCCCCUGUCAGAUUCUGGUGAAUCUGCGAAUUCUGCUGU,0.128
8,GGGGGCCACAUCAGAAGCGUUCACGUCGCGGCCCCUGUCAGAUUCUGGUGAAUCUGCGAAUUCUGCCGU,0.96
9,GGGGGCCACAUCAGAAGCGUUCACGUCGCGGCCCCUGUCAGAUUCUGGUGAAUCUGCGAAUUCUGCAGU,0.913
10,GGGGGCCACAUCAGAAGCGUUCACGUCGCGGCCCCUGUCAGAUUCUGGUGAAUCUGCGAAUUCUGCGGU,0.949
11,GGGGGCCACAUCAGAAGCGUUCACGUCGCGGCCCCUGUCAGAUUCUGGUGAAUCUGCGAAUCCUGCUGU,0.365
12,GGGGGCCACAUCAGAAGCGUUCACGUCGCGGCCCCUGUCAGAUUCUGGUGAAUCUGCGAAUACUGCUGU,0.38
13,GGGGGCCACAUCAGAAGCGUUCACGUCGCGGCCCCUGUCAGAUUCUGGUGAAUCUGCGAAUGCUGCUGU,0.381
14,GGGGGCCACAUCAGAAGCGUUCACGUCGCGGCCCCUGUCAGAUGCUGGUGAAUCUGCGAAUUCUGCUGU,0.734
15,GGGGGCCACAUCAGAAGCGUUCACGUCGCGGCCCCUGUCAGAUCCUGGUGAAUCUGCGAAUUCUGCUGU,0.539
16,GGGGGCCACAUCAGAAGCGUUCACGUCGCGGCCCCUGUCAGAUACUGGUGAAUCUGCGAAUUCUGCUGU,0.677
17,GGGGGCCACAGAAGAAGCGUUCACGUCGCGGCCCCUGUCAGAUUCUGGUGAAUCUGCGAUUUCUGCUGU,0.257
18,GGGGGCCACAGAAGAAGCGUUCACGUCGCGGCCCCUGUCAGAUUCUGGUGAAUCUGCGAGUUCUGCUGU,0.372
19,GGGGGCCACAUCAGAAGCGUUCACGUCGCGGCCCCUGUCAGAUUCUGGUGAAUCUGCUAAUUCUGCUGU,0.891
20,GGGGGCCACAUCAGAAGCGUUCACGUCGCGGCCCCUGUCAGAUUCUGGUGAAUCUGCCAAUUCUGCUGU,0.857

row,Variant,self-cleavage
1,GGGGGCCACAUCAGAAGCGUUCACGUCGCGGCCCCUGUCAGAUUCUGGUGAAUCUGCAAAUUCUGCUGU,0.846
2,GGGGGCCACAUCAGAAGCGUUCACGUCGCGGCCCCUGUCAGAUUCGGGUGAAUCUGCGAAUUCUGCUGU,0.901
3,GGGGGCCACAUCAGAAGCGUUCACGUCGCGGCCCCUGUCAGAUUCCGGUGAAUCUGCGAAUUCUGCUGU,0.79
4,GGGGGCCACAUCAGAAGCGUUCACGUCGCGGCCCCUGUCAGAUUCAGGUGAAUCUGCGAAUUCUGCUGU,0.864
5,GGGGGCCACAGAAGAAGCGUUCACGUCGCGGCCCCUGUCAGAUUCUGGUGAAUCUGCGGAUUCUGCUGU,0.653
6,GGGGGCCACAGAAGAAGCGUUCACGUCGCGGCCCCUGUCAGAUUCUGGUGAAUCUGCGUAUUCUGCUGU,0.343
7,GGGGGCCACAGAAGAAGCGUUCACGUCGCGGCCCCUGUCAGAUUCUGGUGAAUCUGCGCAUUCUGCUGU,0.347
8,GGGGGCCACAUCAGAAGCGUUCACGUCGCGGCCCCUGCCAGAUUCUGGUGAAUCUGCGAAUUCUGCUGU,0.756
9,GGGGGCCACAGAAGAAGCGUUCACGUCGCGGCCCCUGUCCGAUUCUGGUGAAUCUGCGAAUUCUGCUGU,0.209
10,GGGGGCCACAGAAGAAGCGUUCACGUCGCGGCCCCUGUCGGAUUCUGGUGAAUCUGCGAAUUCUGCUGU,0.437
11,GGGGGCCACAGAAGAAGCGUUCACGUCGCGGCCCCUGUCUGAUUCUGGUGAAUCUGCGAAUUCUGCUGU,0.218
12,GGGGGCCACAUCAGAAGCGGUCACGUCGCGGCCCCUGUCAGAUUCUGGUGAAUCUGCGAAUUCUGCUGU,0.121
13,GGGGGCCACAUCAGAAGCGCUCACGUCGCGGCCCCUGUCAGAUUCUGGUGAAUCUGCGAAUUCUGCUGU,0.131
14,GGGGGCCACAUCAGAAGCGAUCACGUCGCGGCCCCUGUCAGAUUCUGGUGAAUCUGCGAAUUCUGCUGU,0.119
15,GGGGGCCACAGAAGAAGCGUUCACGUCGGGGCCCCUGUCAGAUUCUGGUGAAUCUGCGAAUUCUGCUGU,0.105
16,GGGGGCCACAGAAGAAGCGUUCACGUCGUGGCCCCUGUCAGAUUCUGGUGAAUCUGCGAAUUCUGCUGU,0.135
17,GGGGGCCACAGAAGGAGCGUUCACGUCGCGGCCCCUGUCAGAUUCUGGUGAAUCUGCGAAUUCUGCUGU,0.514
18,GGGGGCCACAGAAGUAGCGUUCACGUCGCGGCCCCUGUCAGAUUCUGGUGAAUCUGCGAAUUCUGCUGU,0.106
19,GGGGGCCACAGAAGCAGCGUUCACGUCGCGGCCCCUGUCAGAUUCUGGUGAAUCUGCGAAUUCUGCUGU,0.274
